Residues, ends and D or L forms follow the SMILES beside them. No end group written: not given here.
Key:
HIV = assay: microbe, parasite or virus in culture; format: cell-based, HIV-1; details: human PBMCs
Experimental: Fresh human blood was obtained commercially from Interstate Blood Bank, Inc. (Memphis, Tenn.). The lymphotropic clinical isolate HIV-1ROJO was obtained from a pediatric patient attending the AIDS Clinic at the University of Alabama at Birmingham. The laboratory-adapted HIV-1IIIB strain was propagated and tittered in fresh human PBMCs; pre-titered aliquots of HIV-1ROJO and Hiv-1IIIB were removed from the freezer (−80° C.) and thawed rapidly to room temperature in a biological safety cabinet immediately before use. Phytohemagglutinin (PHA-P) was obtained from Sigma (St. Louis, Mo.) and recombinant IL-2 was obtained from Amgen (San Francisco, Calif.).
Fresh human PBMCs were isolated from screened donors, seronegative for HIV and HBV. Leukophoresed blood was diluted 1:1 with Dulbecco's phosphate buffered saline (PBS), layered over 14 mL of Ficoll-Hypaque density gradient in a 50 mL centrifuge tube and then centrifuged for 30 minutes at 600×g. Banded PBMCs were aspirated from the resulting interface and subsequently washed 2× with PBS by low speed centrifugation. After the final wash, cells were enumerated by trypan blue exclusion and re-suspended at 1×10^7 cells/mL in RPMI 1640 supplemented with 15% Fetal Bovine Serum (FBS), 2 mM L-glutamine, 4 μg/mL PHA-P. The cells were allowed to incubate for 48-72 hours at 37° C. After incubation, PBMCs were centrifuged and reset in RPMI 1640 with 15% FBS, 2 mM L-glutamine, 100 U/ml penicillin, 100 μg/mL streptomycin, 10 μg/mL gentamycin, and 20 U/mL recombinant human IL-2. PBMCs were maintained in this medium at a concentration of 1-2×10^6 cells/mL with biweekly medium changes until used in the assay protocol.
For the standard PBMC assay, PHA-P stimulated cells from at least two normal donors were pooled, diluted in fresh medium to a final concentration of 1×10^6 cells/mL, and plated in the interior wells of 96 well round bottom microplate at 50 μL/well (5×10^4 cells/well). Test drug dilutions were prepared at a 2× concentration in microtiter tubes and […] of each concentration was placed in appropriate wells in a standard format. […] Wells with cells and virus alone were used for virus control. Separate plates were prepared identically without virus for drug cytotoxicity studies using an XTT assay system. The PBMC cultures were maintained for seven days following infection, at which time cell-free supernate samples were collected and assayed for reverse transcriptase activity as described below.
A microtiter based reverse transcriptase (RT) reaction was utilized. See Buckheit et al., AIDS Research and Human Retroviruses 7:295-302 (1991). Tritiated thymidine triphosphate (NEN) (TTP) was resuspended in distilled H2O at 5 Ci/ml. Poly rA and oligo dT were prepared as a stock solution which was kept at −20° C. The RT reaction buffer was prepared fresh on a daily basis and consists of 125 μl 1M EGTA, 125 μl dH2O, 110 μl 10% SDS, 50 μl 1M Tris (pH 7.4), 50 μl 1M DTT, and 40 μl 1M MgCL2. These three solutions were mixed together in a ratio of 2 parts TTP, 1 part poly rA:oligo dT, and 1 part reaction buffer. Ten microliters of this reactions mixture was placed at a round bottom microtiter plate and 15 μl of virus containing supernatant was added and mixed. […] Opti-Fluor-O (Packard) was added to each sample and incorporated radioactivity was quantified utilizing a Wallac 1450 MicroBeta Plus liquid scintillation counter.

Tsg101 [1] = target: T1, Tsg101 (Homo sapiens, UniProt Q99816); assay: Two-hybrid liquid culture β-galactosidase assay; format: cell-based; design: expressed in transfected cells; details: full length Tsg101, liquid culture; for β-galactosidase activity (in words): p6 point mutants
T1 sequence (Q99816 1-390): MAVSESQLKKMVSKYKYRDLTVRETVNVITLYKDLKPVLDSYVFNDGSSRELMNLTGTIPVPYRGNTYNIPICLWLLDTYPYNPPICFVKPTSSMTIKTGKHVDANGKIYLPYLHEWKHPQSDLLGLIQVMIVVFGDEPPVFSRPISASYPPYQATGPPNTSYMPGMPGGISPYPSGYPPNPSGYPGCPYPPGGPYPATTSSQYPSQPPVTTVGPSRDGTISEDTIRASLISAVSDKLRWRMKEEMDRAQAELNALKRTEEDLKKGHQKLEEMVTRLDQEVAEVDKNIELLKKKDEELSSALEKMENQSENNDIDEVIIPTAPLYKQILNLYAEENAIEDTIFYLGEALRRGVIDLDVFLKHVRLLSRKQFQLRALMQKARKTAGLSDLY
Experimental: The interactions between TSG101 and wild-type p6gag (WT) or the p6gag PTAP (SEQ ID NO:1) mutants were further quantitated by performing liquid culture β-galactosidase assays. Cultures were grown overnight in synthetic media (−Leu, −Trp, +glucose) in 96 well plates, normalized for optical density, and lysed by addition of 6× lysis/substrate solution in 6× Z-buffer (60 mM KCl, 6 mM MgSO4, 360 mM Na2HPO4, 240 mM NaH2PO4, 6 mg/ml CPRG, 0.12 U/ml lyticase, 0.075% NP-40). Cultures were incubated for 2 hr at 37° C., clarified by centrifugation, and the optical absorbance of each supernatant was measured (575 nm). Full length Tsg101 bound wild-type p6 in the two-hybrid liquid culture assay, resulting in high levels of β-galactosidase activity (>300-fold over background). […] Each of these point mutations also arrests HIV-1 budding at a late stage (Huang et al. 1995).

Tsg101 [2] = target: T1, Tsg101; assay: Yeast two-hybrid filter lift assay for β-Gal activity, Tsg101 with p6gag constructs; format: cell-based; design: expressed in transfected cells; host or cells: Saccharomyces cerevisiae strain Y189; key to Interactions Between Tsg101 and p6gag (β-Gal activity): +: Positive β-Gal activity indicates that the p6gag wild type or mutant protein interacts with Tsg101; details: for Interactions Between Tsg101 and p6gag (β-Gal activity): yeast strain Y189, activation domain-Tsg101 plus binding domain-p6gag construct, X-Gal filter lift
Text: Yeast two-hybrid assays were utilized to determine the effect of amino acid substitution mutations in the PTAP (SEQ ID NO:1) motif of HIV p6gag on the interaction between Tsg101 and p6gag. To prepare a yeast two-hybrid activation domain-Tsg101 construct, a DNA fragment encompassing the full-length coding sequence for Tsg101 according to GenBank Accession No. U82130 was obtained by PCR from a human fetal brain cDNA library and cloned into the EcoRI/Pst1 sites of the activation domain parent plasmid GADpN2 (LEU2, CEN4, ARS1, ADH1p-SV40NLS-GAL4 (768-881)-MCS (multiple cloning site)-PGKlt, AmpR, ColE1_ori).
To prepare the yeast two-hybrid DNA binding domain-HIV1 p6gag construct, a DNA fragment corresponding to the HIV1 p6 peptide derived from the HIV1.NL43 strain GAG protein was obtained by PCR from the NL43 containing plasmid R9Δapa and was cloned into the EcoRI/Sal1 sites of the binding domain parent plasmid pGBT.Q. The sequence of the amplified insert is shown in SEQ ID NO:34.
The following amino acid substitution mutations were introduced by PCR into the HIV1 p6gag sequence in the yeast two-hybrid binding domain-HIV1 p6gag construct described above. The mutations were verified by DNA sequence analysis.
To test the effect of the mutations, yeast cells of the strain Y189 purchased from Clontech (ura3-52 his3*200 ade2-101 trp1-901 leu2-3,112 met gal4 gal80 URA3::GAL1p-lacZ) were co-transformed with the activation domain-Tsg101 construct and one of the binding domain-mutant p6gag constructs or the binding domain-wild type p6gag construct. Filter lift assays for β-Gal activity were conducted by lifting the transformed yeast colonies with filters, lysing the yeast cells by freezing and thawing, and contacting the lysed cells with X-Gal. […] All binding domain constructs were also tested for self-activation of β-Gal activity.

| Compound | Comments (anti-HIV activity) (HIV) | β-galactosidase activity (in words) (Tsg101 [1]) | also measured |
| --- | --- | --- | --- |
| C[C@H](NC(=O)[C@@H](NC(=O)[C@@H]1CCCN1C(=O)[C@H](CCC(=O)O)NC(=O)[C@@H]1CCCN1C(=O)[C@H](CCCNC(=N)N)NC(=O)[C@H](CCCNC(=N)N)NC(=O)[C@H](CCCNC(=N)N)NC(=O)[C@H](CCCNC(=N)N)NC(=O)[C@H](CCCNC(=N)N)NC(=O)[C@H](CCCNC(=N)N)NC(=O)[C@H](CCCNC(=N)N)NC(=O)[C@H](CCCNC(=N)N)NC(=O)[C@@H](N)CCCNC(=N)N)[C@@H](C)O)C(=O)N1CCC[C@H]1C(=O)N[C@@H](CCC(=O)O)C(=O)N[C@@H](CCC(=O)O)C(=O)O [MPI-PEP1, NH2—(R)9-PEPTAPEE-COOH] (H-RRRRRRRRRPEPTAPEE-OH) | Active | – | – |
| CC(C)C[C@H](NC(=O)[C@H](C)NC(=O)[C@@H](NC(=O)[C@@H]1CCCN1C(=O)[C@H](CCC(=O)O)NC(=O)[C@@H]1CCCN1C(=O)[C@H](CCCNC(=N)N)NC(=O)[C@H](CCCNC(=N)N)NC(=O)[C@H](CCCNC(=N)N)NC(=O)[C@H](CCCNC(=N)N)NC(=O)[C@H](CCCNC(=N)N)NC(=O)[C@H](CCCNC(=N)N)NC(=O)[C@H](CCCNC(=N)N)NC(=O)[C@H](CCCNC(=N)N)NC(=O)[C@@H](N)CCCNC(=N)N)[C@@H](C)O)C(=O)N[C@@H](CCC(=O)O)C(=O)N[C@@H](CCC(=O)O)C(=O)O [MPI-PEP2, NH2—(R)9-PEPTALEE-COOH] (H-RRRRRRRRRPEPTALEE-OH) | Inactive | – | – |
| C[C@H](NC(=O)[C@@H](NC(=O)[C@@H]1CCCN1C(=O)[C@H](CCC(=O)O)NC(=O)[C@@H]1CCCN1C(=O)[C@@H](N)CCCNC(=N)N)[C@@H](C)O)C(=O)N1CCC[C@H]1C(N)=O [MPI-PEP3, NH2-RPEPTAP-CO—NH2] (H-RPEPTAP-NH2) | Inactive | – | – |
| p6(A9R): HIV1 p6gag binding domain construct with A9R substitution in the PTAP motif (LQSRPEPTRPPEESFRFGEETTTPSQKQEPIDKELYPLASLRSLFGSDPSSQ; not fully specified) | – | reduced β-galactosidase activity to background levels | – |
| p6(E6G): HIV1 p6gag binding domain construct with E6G substitution outside the PTAP motif (LQSRPGPTAPPEESFRFGEETTTPSQKQEPIDKELYPLASLRSLFGSDPSSQ; not fully specified) | – | – | Tsg101-p6gag interaction (in words) (Tsg101 [2]; summary of Table II): did not result in the elimination of the Tsg101-p6gag interaction; Interactions Between Tsg101 and p6gag (β-Gal activity) (Tsg101 [2]): + |
| p6(P7L): HIV1 p6gag binding domain construct with P7L substitution in the PTAP motif (LQSRPELTAPPEESFRFGEETTTPSQKQEPIDKELYPLASLRSLFGSDPSSQ; not fully specified) | – | reduced β-galactosidase activity to background levels | – |
| p6(P10L): HIV1 p6gag binding domain construct with P10L substitution in the PTAP motif (LQSRPEPTALPEESFRFGEETTTPSQKQEPIDKELYPLASLRSLFGSDPSSQ; not fully specified) | – | reduced β-galactosidase activity to background levels | – |
| p6(wt): wild type HIV1 p6gag (NL43 strain) as yeast two-hybrid DNA binding domain construct | – | – | β-galactosidase activity (Tsg101 [1]; absorbance 575 nm): > 300 fold over background; Interactions Between Tsg101 and p6gag (β-Gal activity) (Tsg101 [2]): + |
